Data from PMC12302606, “The SlDOF9‐SlSWEET17 Module: a Switch for Controlling Sugar Distribution Between Nematode Induced Galls and Roots in Tomato”.
Positions count from the first letter of the chain named.

B1: TS1 (dsDNA)
DNA 1: AAAAAGTGATAAGAAAAAACATCCAAGCCCT
DNA 2: AGGGCTTGGATGTTTTTTCTTATCACTTTTT
B2: TS1m (dsDNA)
DNA 1: B1 DNA 1 with A3C, A5T
DNA 2: B1 DNA 2 with T27A, T29G
B3: TS2 (dsDNA)
DNA 1: AGCCAGAAAAGAAAATACAATAATTCTCATT
DNA 2: AATGAGAATTATTGTATTTTCTTTTCTGGCT

Target: SlDOF9-His (Solanum lycopersicum, UniProt A0A3Q7FC45 1-258)
Assay: EMSA (supershift); anti-His antibody; Biotin-labeled and unlabeled probes with purified protein and anti-His antibody, room temperature, 30 min; buffer from kit, salt and pH not stated
Conditions: protein: recombinant, tags: C-terminal His, blunt

SlDOF9-His, sequence (A0A3Q7FC45 entry or part of it): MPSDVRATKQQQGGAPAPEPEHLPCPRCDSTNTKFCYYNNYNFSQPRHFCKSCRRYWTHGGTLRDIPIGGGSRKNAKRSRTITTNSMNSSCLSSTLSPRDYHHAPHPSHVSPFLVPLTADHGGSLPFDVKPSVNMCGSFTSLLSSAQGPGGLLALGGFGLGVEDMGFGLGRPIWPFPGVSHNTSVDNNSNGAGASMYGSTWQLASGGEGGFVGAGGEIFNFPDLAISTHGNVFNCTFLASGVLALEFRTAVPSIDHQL

| Binder | binding result (label: biotin (labeled probe)) | binding result |
| --- | --- | --- |
| B1 | binds | – |
| B2 | – | no binding |
| B3 | binds | – |
